Assay results from patent US20250210128A1 (ECOLE POLYTECHNIQUE FEDERALE DE LAUSANNE EPFL, published 2025).
No end group written: not given here.

What was measured:
Assay in all cases: cell-based or functional assay
[1] = molecular target: CLdes CXCR4 sensor (Cdes2 design combined with H113N) (human)
[2] = molecular target: Cdes2 CXCR4 design (human)
[3] = molecular target: Ldes CXCR4 (library-selected combination receptor variant) (human)

KPVSLSYRCPCRFFESH-NH2 (cysteine pairing not given here) [CXCL12 1-17 peptide, wild-type (17 N-terminal residues of CXCL12)]
Gi response (potency/sensitivity) [1]: > 9 fold over WT | potency in G-coupling (Gi BRET) [2]: 3.2 fold over WT | potency in calcium mobilization [2]: 3.1 fold over WT | Gi potency [3]: ~11 fold over CXCR4 WT scaffold
